Converted amounts (≈) assume the structure as drawn. “And” between values parts separate entries of the source, which are not always exact repeats. Identical values can stand only once. “Also recorded” adds a separate entry of the source. Like-named read-outs stand apart in the source and are kept apart here.

Experiment [1] deals with vancomycin-resistant Enterococcus faecalis (ATCC 700802). The format is cell-based. The settings on record: MH medium.
Experiment [2] has as its system methicillin-resistant Staphylococcus aureus (ATCC BAA-42). The experiment is described as follows: Minimum inhibitory concentration by agar dilution method. The format is cell-based.
In experiment [3] the test system is Nesseria meningitidis (No. 29332). The description is as above. The format is cell-based. The settings on record: Embodiment 4, FIG. 6A, blood-chocolate medium with Columbia blood agar base.
In experiment [4] the test system is multi-drug resistant Pseudomonas aeruginosa (isolated by West China Hospital, No. 13578). The description is as above. The note with it: for MIC in terms of molecular weight standard: Embodiment 3, converted from μg/ml; for MIC: MH medium. The format is cell-based.
Experiment [5] deals with Mycobacterium tuberculosis (the standard strains H37RV). As to the kind of experiment: In vivo protection of mice infected by Mycobacterium tuberculosis. More on the design: species or system BalB/c mice. The note with it: for weight of mice during experiment: during 5 weeks treatment; for lung by microscope (pathological section): 5 weeks treatment, magnification 200, FIG. 11.

The test system of experiment [6] is Nesseria meningitidis (No. 29332). As to the kind of experiment: In vivo protection of mice infected by fatal dose of Nesseria meningitidis. The settings on record: 1.5 mg/kg intravenous 1 hour after intraperitoneal fatal dose; for survival rate in 8 days: 10 mice per group. The procedure:
The mice were given an intraperitoneal injection of glucose solution of ferrous by 20 mg/kg, and 1 hour later an intraperitoneal injection of 0.5 ml of bacteria culture containing 1 share of Nesseria meningitidis cultrue solution (its CFU was 2.36×10^9/ml) and 1.5 share of 5% dry yeast solution. One hour later after being given intraperitoneal injection of fatal dose of the bacteria culture, the mice in experimental group were given an intravenous injection of the drugs and the mice in control group were given an intravenous injection of normal saline, all drugs were injected by 1.5 mg/kg), observation every 2 hours for 8 days, the death of mice as the positive results.

Experiment [7] concerns Nesseria meningitidis strain No. 29332. The experiment is described as follows: Inhibiting effect on growth of Nesseria meningitidis in liquid culture (growth curve, optical density). The format is cell-based. The settings on record: 5 and 10 μg/ml, rabbit blood-chocolate medium, 37° C., hourly A595 nm, FIG. 4. The procedure:
The bacteria was strain No. 29332 Nesseria meningitidis (No. 29332 of bacteria Preservation Center in China, i.e. Center of Medical Devices of National Institute for the Control of Pharmaceutical & biological Products, SDA), two microlitres (μl) of bacteria solution (10^5 CFU/ml) was added in 10 ml rabbit blood-chocolate medium containing 50 mg beef extract, 100 mg tryptone, 50 mg NaCl, 30 mg K2HPO4 and 0.5-0.8 ml off fiber rabbit blood. Five groups were prepared. The first group was added 0.3 M NaCl+50 mM boric acid buffer fluid (i.e. blank preservative fluid for the novel antibiotic, by the same volume with the novel antibiotic solution in the group 4 and 5) as control. Penicillin sodium was added in the second group by 5 μg/ml. The novel antibiotic PMC-AM1 was added in the third group by 5 μg/ml. The novel antibiotic PMC-AM2 was added in the forth group by 5 μg/ml. The novel antibiotic PMC-AM1 was added in the fifth group by 10 μg/ml.
Reactant liquid of the above five groups were respectively put into 100 ml conical flask, and cultured at 37° C. by 200 rpm 100 μl culture solution was sampled per hour and added onto 96-pore ELISA plate for measuring bacteria grown cloudiness by spectrophotometer (A595 nm) color comparison. The bacteria-growth curve was drawn up to compare the bacteriostasis efficacy of novel antibiosis.

The mark [8] stands for this setting: Embodiment 4, FIG. 6C, BM medium.
Setting [9] is: Pseudomonas aeruginosa, Embodiment 3, agar dilution, 37° C. 18-24 hours, FIG. 5, read-out: MIC.
Where [10] appears, read: Embodiment 3, agar dilution, 37° C. 18-24 hours, FIG. 5.
[11] abbreviates: Embodiment 5, FIG. 7B, MH medium.

Regarding `CC1(C)S[C@@H]2[C@H](NC(=O)[C@H](N)c3ccccc3)C(=O)N2[C@H]1C(=O)O` [ampicillin, reference compound], the MIC is 10.78 nmol in experiment [1] (Embodiment 4, FIG. 6B); 21.55 nmol in experiment [2] (setting [8]); 1.35 nmol in experiment [3].

`CC(C)(O/N=C(\C(=O)N[C@@H]1C(=O)N2C(C(=O)[O-])=C(C[n+]3ccccc3)CS[C@H]12)c1csc(N)n1)C(=O)O` [ceftazidime]: the “MIC in terms of molecular weight standard” value (shortened to “MIC in terms”) in experiment [4] came to 29.3 nmol. The MIC in experiment [4] (Embodiment 4, FIG. 6D) was 29.3 nmol; in experiment [4] (setting [9]) it was 16 µg/mL (≈ 29.3 µM); in experiment [3] it was 3.02 nmol.

For `NNC(=O)c1ccncc1` [isoniazid, reference compound], the “weight of mice during experiment” value in experiment [5] is “rise”.

Turning to `C[C@H]1COc2c(N3CCN(C)CC3)c(F)cc3c(=O)c(C(=O)O)cn1c23` [levofloxacin], the “MIC in terms” value in experiment [4] was determined as 43.2 nmol. In addition, the MIC was 43.2 nmol in experiment [4] (Embodiment 4, FIG. 6D) and 8 µg/mL (≈ 22.1 µM) in experiment [4] (setting [9]).

Regarding `Cc1onc(-c2ccccc2)c1C(=O)N[C@@H]1C(=O)N2[C@@H]1SC(C)(C)[C@@H]2C(=O)O` [oxacillin, reference compound], in experiment [2] (setting [8]), the MIC was 14.1 nmol.

For `CN[C@H](CC(C)C)C(=O)N[C@H]1C(=O)N[C@@H](CC(N)=O)C(=O)N[C@H]2C(=O)N[C@H]3C(=O)N[C@H](C(=O)N[C@H](C(=O)O)c4cc(O)cc(O)c4-c4cc3ccc4O)[C@H](O)c3ccc(c(Cl)c3)Oc3cc2cc(c3O[C@@H]2O[C@H](CO)[C@@H](O)[C@H](O)[C@H]2O[C@H]2C[C@](C)(N)[C@H](O)[C@H](C)O2)Oc2ccc(cc2Cl)[C@H]1O` [vancomycin, reference compound], in experiment [1] (Embodiment 4, FIG. 6B), the MIC came out at 21.54 nmol.

As to gentamicin, the “survival rate in 8 days” value in experiment [6] turned out to be 50%. The MIC entry is “greater than 512 μg/ml” in experiment [4] (setting [10]) and over 889.4 nmol in experiment [4] (Embodiment 4, FIG. 6D). For the same molecule, the “MIC in terms” value in experiment [4] is “greater than 890 nMol”.

With penicillin, the “death of mice (survival outcome in words)” value in experiment [6] was “all died in two days”.

B1: Colicin Ia (protein, UniProt P06716 1-626, looked up)
Colicin-Ia: MSDPVRITNPGAESLGYDSDGHEIMAVDIYVNPPRVDVFHGTPPAWSSFGNKTIWGGNEWVDDSPTRSDIEKRDKEITAYKNTLSAQQKENENKRTEAGKRLSAAIAAREKDENTLKTLRAGNADAADITRQEFRLLQAELREYGFRTEIAGYDALRLHTESRMLFADADSLRISPREARSLIEQAEKRQKDAQNADKKAADMLAEYERRKGILDTRLSELEKNGGAALAVLDAQQARLLGQQTRNDRAISEARNKLSSVTESLNTARNALTRAEQQLTQQKNTPDGKTIVSPEKFPGRSSTNHSIVVSGDPRFAGTIKITTSAVIDNRANLNYLLSHSGLDYKRNILNDRNPVVTEDVEGDKKIYNAEVAEWDKLRQRLLDARNKITSAESAVNSARNNLSARTNEQKHANDALNALLKEKENIRNQLSGINQKIAEEKRKQDELKATKDAINFTTEFLKSVSEKYGAKAEQLAREMAGQAKGKKIRNVEEALKTYEKYRADINKKINAKDRAAIAAALESVKLSDISSNLNRFSRGLGYAGKFTSLADWITEFGKAVRTENWRPLFVKTETIIAGNAATALVALVFSILTGSALGIIGYGLLMAVTGALIDESLVEKANKFWGI
notes: Wild-type bacterial toxin secreted by E. coli forming ion channels
Consider B1, for which the “lung by microscope (pathological section)” value in experiment [5] is reported as “the injury was little slighter than the control mouse's”. Besides, the “mice died before sacrifice (from the forth week)” value in experiment [5] (mouse, in vivo) was 1 mouse. In addition, the MIC worked out at 0.91 nmol in experiment [1] (Embodiment 5, FIG. 7A); 0.23 nmol in experiment [2] (setting [11]); 0.91 nmol in experiment [4] (Embodiment 5, FIG. 7C).

B2: PMC-AM1: Fusion of antibody mimetic AM1 (VHCDR1-VHFR2-VLCDR3, Seq ID No.2) to C-terminus of Colicin Ia; Seq ID No.6 (protein)
chain: SDPVRITNPGAESLGYDSDGHEIMAVDIYVNPPRVDVFHGTPPAWSSFGNKTIWGGNEWVDDSPTRSDIEKRDKEITAYKNTLSAQQKENENKRTEAGKRLSAAIAAREKDENTLKTLRAGNADAADITRQEFRLLQAELREYGFRTEIAGYDALRLHTESRMLFADADSLRISPREARSLIEQAEKRQKDAQNADKKAADMLAEYERRKGILDTRLSELEKNGGAALAVLDAQQARLLGQQTRNDRAISEARNKLSSVTESLNTARNALTRAEQQLTQQKNTPDGKTIVSPEKFPGRSSTNHSIVVSGDPRFAGTIKITTSAVIDNRANLNYLLSHSGLDYKRNILNDRNPVVTEDVEGDKKIYNAEVAEWDKLRQRLLDARNKITSAESAVNSARNNLSARTNEQKHANDALNALLKEKENIRNQLSGINQKIAEEKRKQDELKATKDAINFTTEFLKSVSEKYGAKAEQLAREMAGQAKGKKIRNVEEALKTYEKYRADINKKINAKDRAAIAAALESVKLSDISSNLNRFSRGLGYAGKFTSLADWITEFGKAVRTENWRPLFVKTETIIAGNAATALVALVFSILTGSALGIIGYGLLMAVTGALIDESLVEKANKFWGISYWLHWIKQRPGQGLWIGSQSTHVPRT
modifications: The amino acid sequence of antibiotic PMC-AM1
As to B2, the “bacteria growth (bacteriostasis efficacy, growth curve)” value in experiment [7] is given as “can only be restrained by PMC-AM1”. The “lung by microscope (pathological section)” value in experiment [5] is “intact but had a little of cellular infiltration in parts”. In addition, the “weight of mice during experiment” value in experiment [5] is “rise”. Besides, in experiment [5] (mouse, in vivo, ip), the “observation of the mice's lung (TB nodules, necrosis)” value is “intact, and had no nodules and necrosis of tuberculosis; also recorded: no TB nodules and necrosis”. For the same molecule, the MIC in experiment [1] (Embodiment 4, FIG. 6B) was determined as 0.23 nmol; in experiment [1] (Embodiment 5, FIG. 7A) it was 0.23 nmol; in experiment [2] (setting [8]), 0.06 nmol; in experiment [2] (setting [11]), 0.06 nmol; in experiment [4] (setting [10]), 8 µg/mL; in experiment [4] (Embodiment 4, FIG. 6D), 0.91 nmol. In addition, the MIC came out at 0.23 nmol in experiment [4] (Embodiment 5, FIG. 7C) and 0.11 nmol in experiment [3]. In addition, the “survival rate in 8 days” value in experiment [6] stood at 90%. For the same molecule, the “MIC in terms” value in experiment [4] is 0.23 nmol. Besides, the “antibacterial effect stronger than ceftazidime, levofloxacin and gentamicin” value in experiment [4] (Embodiment 3, ratio of molar MICs) was 127 to 3800 times and 127-3800 times.

Values taken from patent US9073989B2, “Antibiotic comprising an antibody mimetic, its preparation methods and uses thereof” (PROTEIN DESIGN LAB, LTD, priority 2011, dated 2015).
